Results on 13 substances are retold here after patent US6416738.

In assay [1] the target is NR-LU-10 antigen (approximately 40 kilodalton glycoprotein antigen expressed on most carcinomas) (human) (UniProt P16422). Put plainly: ELISA, percent of native NR-LU-10 (thiol biotinylation). A general note: In an ELISA, binding on a coated surface is turned into a signal by an enzyme label.
For assay [2], the target named is NR-LU-10 antigen on LS-180 tumor cells (human) (UniProt P16422). Put plainly: cell binding, percent of native NR-LU-10 (LS-180 cells as described for Table 2).
Assay [3] has the same target. Put plainly: binding to LS-180 tumor cells at antigen excess, percent of native NR-LU-10.
Assay [4] deals with NR-LU-10 antigen (approximately 40 kilodalton glycoprotein antigen expressed on most carcinomas) (human) (UniProt P16422). In words: limiting antigen ELISA, percent of native NR-LU-10.
Assay [5] has as its target Biotinylated NR-LU-10 (thiol). Put plainly: cell-based or functional assay.
Assay [6] has as its target Biotinylated NR-LU-10 (lysine). Put plainly: cell-based or functional assay.
For another assay, the target named is Streptavidin (UniProt P22629). In words: 20 ug radiolabeled protein with 400 ul streptavidin-agarose beads, spun and washed, counted.
In assay [7] the target is Avidin (UniProt P02701). In words: binding of radioiodinated biotinylated antibody to avidin-agarose.
Assay [8] concerns the target Avidin (UniProt P02701). Put plainly: residual circulating radiolabeled antibody after avidin injection in mice, examined in vitro on immobilized biotin.

Sequence of Streptavidin (P22629 37-163 limits assumed): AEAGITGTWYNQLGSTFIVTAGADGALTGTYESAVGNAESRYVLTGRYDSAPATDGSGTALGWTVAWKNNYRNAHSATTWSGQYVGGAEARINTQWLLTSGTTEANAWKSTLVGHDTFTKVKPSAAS
Sequence of NR-LU-10 antigen on LS-180 tumor cells (human) (P16422 24-314): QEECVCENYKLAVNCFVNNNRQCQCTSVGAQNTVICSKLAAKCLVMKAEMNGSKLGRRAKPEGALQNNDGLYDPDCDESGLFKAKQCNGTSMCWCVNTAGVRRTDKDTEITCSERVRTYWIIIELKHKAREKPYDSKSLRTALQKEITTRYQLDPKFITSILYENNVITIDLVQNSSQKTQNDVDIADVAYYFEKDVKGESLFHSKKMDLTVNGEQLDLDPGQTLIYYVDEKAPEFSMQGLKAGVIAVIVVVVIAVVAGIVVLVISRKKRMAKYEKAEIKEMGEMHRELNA
Sequence of NR-LU-10 antigen (approximately 40 kilodalton glycoprotein antigen expressed on most carcinomas) (human) (P16422 24-314): as above
Sequence of Avidin (P02701 25-152 limits assumed): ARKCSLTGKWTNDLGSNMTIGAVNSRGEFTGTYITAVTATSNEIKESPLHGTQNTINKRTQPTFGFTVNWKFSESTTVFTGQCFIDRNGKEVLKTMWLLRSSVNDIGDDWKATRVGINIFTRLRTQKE

With “Biotinylated NR-LU-10 (thiol), molar offering 50:1, measured 6.5 biotins/Ab (antibody)”, the Immunoassessment (%) ELISA, immunoreactivity as compared to native antibody in [1] came to 102%. For the same substance, the Immunoassessment (%) Cell Binding in assay [2] worked out at 100%.

On to “Biotinylated NR-LU-10 (lysine), molar offering 10:1, measured 8.5 biotins/Ab (antibody)”, for which the Immunoassessment (%) Cell Binding in assay [3] was found to be 100%. Also, the Immunoassessment (%) ELISA, immunoreactivity as compared to native antibody in [4] is 73%.

Avidin (from UniProt P02701 25-152) displayed a circulating antibody level in mice after avidin administration (% of injected dose) in assay [5] of 35. The blood pool concentration of biotinylated antibody in mice after avidin administration in [6] was determined as 10 fold.

On to “Biotinylated NR-LU-10 (thiol), molar offering 100:1, measured 6.1 biotins/Ab (antibody)”, for which, in [1], the Immunoassessment (%) ELISA, immunoreactivity as compared to native antibody worked out at 95%. This substance registered an Immunoassessment (%) Cell Binding in [2] of 100%.

As to “Biotinylated human asialoorosomucoid (from UniProt P02763 19-201)”, in the assay with Streptavidin, the % radioactivity in Pellet (bound to streptavidin-agarose) worked out at 90% and the % radioactivity in Supernatant (not bound to streptavidin-agarose) amounted to 10%.

“Biotinylated NR-LU-10 (lysine), molar offering 20:1, measured 13.4 biotins/Ab (antibody)” displayed an Immunoassessment (%) Cell Binding in assay [3] of 106%. Moreover, the Immunoassessment (%) ELISA, immunoreactivity as compared to native antibody in [4] is 36%.

In the case of “Biotinylated human orosomucoid, PIP-125-labeled (from UniProt P02763 19-201)”, in the assay with Streptavidin, the % radioactivity in Pellet (bound to streptavidin-agarose) stood at 92% and the % radioactivity in Supernatant (not bound to streptavidin-agarose) is 7.7%.

On to “Biotinylated NR-LU-10 (lysine), molar offering 13:1, measured 11.1 biotins/Ab (antibody)”, for which the Immunoassessment (%) Cell Binding in assay [3] came out at 102%. Also, in [4], the Immunoassessment (%) ELISA, immunoreactivity as compared to native antibody came to 69%.

In the case of “Biotinylated NR-LU-10 (lysine) (antibody)”, in the assay with Avidin [7], the % specific binding to immobilized avidin-agarose is 98%.

As to “Biotinylated NR-LU-10 (lysine), molar offering 40:1, measured 23.1 biotins/Ab (antibody)”, in assay [4], the Immunoassessment (%) ELISA, immunoreactivity as compared to native antibody was 27%.

Consider “Biotinylated NR-LU-10 (thiol), molar offering 10:1, measured 4.7 biotins/Ab (antibody)”, for which, in assay [1], the Immunoassessment (%) ELISA, immunoreactivity as compared to native antibody turned out to be 114%.

As for “Biotinylated NR-LU-10 (thiol) (antibody)”, the % specific binding to immobilized avidin-agarose with Avidin [7] is 98%. In the assay with Avidin [8], the % of biotinylated antibody complexed with avidin amounted to 85%.

Consider “Biotinylated NR-LU-10 (lysine), molar offering 5:1, measured 3.4 biotins/Ab (antibody)”, for which the Immunoassessment (%) ELISA, immunoreactivity as compared to native antibody in assay [4] turned out to be 86%.
